Laboratory results: patent publication US20210205211A1, “PERCUTANEOUS ABSORPTION PREPARATION” (KYUSHU UNIVERSITY, NATIONAL UNIVERSITY CORPORATION, priority 2018, published 2021)
Residues, ends and D or L forms follow the SMILES beside them.

Key:
[1] = In vitro skin permeability test of hydrophilic polymers in S/O-S formulation containing MGOL-70 (Example 6); details: for Skin permeation amount of S/O-S preparation: 1 mg/mL hydrophilic polymer S/O-S formulation in IPM containing 25 mg/mL MGOL-70; for Skin permeation amount of S/O-S preparation / Skin permeation amount of PBS solution: YMP skin, 24 hours, 32° C.; for Enhancement effect: S/O-S preparation versus PBS solution; for Skin permeation amount of PBS solution: hydrophilic polymer in PBS solution
[2] = In vitro skin permeability test of CMAP peptide S/O-S formulations with various oily bases (Example 1); assay type: in vitro ADME, Yucatan micropig
[3] = no method given; cited from earlier work
[4] = Measurement of zeta potential by electrophoretic light scattering; assay type: physicochemical; details: 1 mg in 1 mL PBS solution, 25° C., Zetasizer Nano ZS
Protocol: In each 1 mL of a PBS solution was dissolved 1 mg of a part (7 kinds) of the various kinds of hydrophilic polymers shown in the above-mentioned Table 1, and a zeta potential was measured by an electrophoretic light scattering method at 25° C. using Zetasizer Nano ZS (Malvern Panalytical Ltd.).

[5] = In vitro skin permeability test of OVA S/O-S formulations with various base oils (Example 8); assay type: in vitro ADME, Yucatan micropig; details: for Average skin permeation amount: Yucatan micropig, pig, 24 h
[6] = In vitro skin permeability test of OVA with glyceryl monooleate/glyceryl monolinoleate (Example 11); assay type: in vitro ADME; details: OVA S/O-S in IPM; HR-1 mouse skin, 4 hours
Protocol: Glyceryl monooleate and glyceryl monolinoleate were dissolved in IPM with the composition shown in the following Table 7 to prepare Formulation 2.
Formulation 1 and Formulation 2 were mixed with a volume ratio of 1:1, and used in the following skin permeability test.
After 4 hours, the receiver phase was recovered, and the amount of the FITC-OVA permeated through the skin was quantified by using a plate reader.

[7] = In vitro skin permeability test of OVA versus concentration of permeation enhancing substance (Example 3); details: S/O-S formulation 1 mg/mL OVA in IPM; enhancer solutions of 2, 10, 50 or 100 mg/mL mixed 1:1; 24 hours

Row | Molecule | Skin permeation amount of S/O-S preparation [1] [μg/cm^2] | Enhancement effect [1] [fold] | Skin permeation amount of PBS solution [1] [μg/cm^2] | pI [3] | ζ potential [4] [mV] | other results
1 | CC(C)C[C@H](NC(=O)[C@H](CCC(=O)O)NC(=O)[C@H](CCC(=O)O)NC(=O)[C@@H](NC(=O)[C@H](Cc1ccc(O)cc1)NC(=O)[C@@H](NC(=O)[C@H](CCCNC(=N)N)NC(=O)[C@H](CC(C)C)NC(=O)[C@@H]1CCCN1C(=O)[C@H](C)NC(=O)[C@H](CO)NC(=O)[C@H](CCC(N)=O)NC(=O)[C@H](C)NC(=O)[C@H](CC(=O)O)NC(=O)[C@H](CC(C)C)NC(=O)[C@@H](N)CC(C)C)C(C)C)C(C)C)C(=O)N[C@@H](CCCCN)C(=O)N1CCC[C@H]1C(=O)O [Peptide (CMAP, from Beta-lactoglobulin)] (H-LLDAQSAPLRVYVEELKP-OH; N-terminus and C-terminus assumed) | 11.1 | 15 | 1.30 |  |  | 
2 | CCCCCCCC/C=C\CCCCCCCC(=O)O [oleic acid] |  |  |  |  |  | enhancing effect of percutaneous permeation (amount of skin permeation of the CMAP peptide) [2]: high enhancing effect of percutaneous permeation
3 | Bovin serum albumin: Bovine serum albumin, 66.5 kDa, FITC-label | 32.1 | 8.9 | 3.6 | 4.7 | −16.7 | 
4 | CCCCCCCCCCCCCC(=O)OC(C)C [Isopropyl myristate, isopropyl myristate] |  |  |  |  |  | skin permeation effect of OVA by oily base [5]: high skin permeation effect; Average skin permeation amount [5]: 44.3 μg/cm^2
5 | CCCCC/C=C\C/C=C\CCCCCCCC(=O)OCC(O)CO (stereo not drawn) [glyceryl monolinoleate] |  |  |  |  |  | skin permeation amount of the drug with increase in the addition ratio [6]: the skin permeation amount of the drug was increased
6 | CCCCCCCC/C=C\CCCCCCCC(=O)OCC(O)CO (stereo not drawn) [MGOL-70, glyceryl monooleate] |  |  |  |  |  | tendency of the enhancing substance on percutaneous permeation of OVA [7]: tend to enhance it
7 | CC(C)CCCC(C)CCCC(C)CCCCC(C)CCCC(C)CCCC(C)C (stereo not drawn) [Squalane, squalane] |  |  |  |  |  | skin permeation effect of OVA by oily base [5]: high skin permeation effect; Average skin permeation amount [5]: 40.8 μg/cm^2
8 | Lysozyme: Lysozyme, 14.3 kDa, FITC-label | 6.0 | 1.5 | 4.0 | 11 | 8.84 | 
9 | Green fluorescent protein | 35.0 | 8.4 | 4.2 | 6.1 | −9.52 | state of the protein permeated into the skin ([1]; quantified by own fluorescence (GFP) or peroxidase activity (HRP) in skin extract): could be permeated into the skin without being denatured
10 | Cholera toxin subunit B | 39.4 | 4.0 | 9.8 | 6.6 | −3.29 | 
11 | Ovalubumin: Ovalbumin (OVA), 45 kDa, labeled with FITC; model hydrophilic drug (protein, UniProt P01012 2-386, looked up, FITC, Ovalbumin (OVA), 45 kDa, labeled with FITC; model hydrophilic drug) Ovalbumin: GSIGAASMEFCFDVFKELKVHHANENIFYCPIAIMSALAMVYLGAKDSTRTQINKVVRFDKLPGFGDSIEAQCGTSVNVHSSLRDILNQITKPNDVYSFSLASRLYAEERYPILPEYLQCVKELYRGGLEPINFQTAADQARELINSWVESQTNGIIRNVLQPSSVDSQTAMVLVNAIVFKGLWEKAFKDEDTQAMPFRVTEQESKPVQMMYQIGLFRVASMASEKMKILELPFASGTMSMLVLLPDEVSGLEQLESIINFEKLTEWTSSNVMEERKIKVYLPRMKMEEKYNLTSVLMAMGITDVFSSSANLSGISSAESLKISQAVHAAHAEINEAGREVVGSAEAGVDAASVSEEFRADHPFLFCIKHIATNAVLFFGRCVSP | 12.5 | 30 | 0.41 | 4.9 | −12.80 | 
